We go through one substance from publication PMC10899662, “TopBP1 utilises a bipartite GINS binding mode to support genome replication” (Nature Communications, 2024).

The experiment concerns the target GINS (HIS-(3C)-Sld5, Psf1, Psf2, Psf3) for structural and fluorescence polarisation studies, Q9BRT9;Q14691;Q9Y248;Q9BRX5. Description: fluorescence polarisation. Conditions: point at the highest concentration, 150 µM; parent: est. 180; read off a plot.

Turning to “fluorescently labelled GINI-core peptide (Ala478-Gly497), WT L490P; L491P”, the response was found to be 3 mP.
